Drawing on article PMC2791020, this text covers Kd, koff and kon for two substances.

Assay [1] concerns the target protein kinase A catalytic (C) subunit mutant K285P. Description: SPR.
In assay [2] the target is protein kinase A catalytic (C) subunit, wild type (UniProt P05132). Description: SPR. In general terms: In SPR one partner is held on a chip, and binding of the other changes the refractive index at the surface.

In general, Kd refers to the constant that tells how readily two partners part at equilibrium. As a reminder, the koff is the rate constant with which the complex falls apart. Read a low koff as slow dissociation. In assay [1], “RIIβAB, truncated PKA regulatory subunit RIIβ (from UniProt P12369 108-402) (domain or fragment)” had a Kd of 111 nM and a koff of 0.0123 s⁻¹.

For orientation: kon means the rate constant with which the complex forms. A higher kon goes with faster complex formation. For the substance “RIαAB, truncated RIα(91–379) containing both cAMP-binding domains (domain or fragment)”, in assay [1], the Kd was 4.9 nM, the koff worked out at 0.00443 s⁻¹ and the kon is 906000 M⁻¹ s⁻¹. In assay [2], this substance returned a Kd of 0.9 nM, an off-rate (koff) of 0.000844 s⁻¹ and a kon of 919000 M⁻¹ s⁻¹.
